From patent US20190309093A1 (Y BIOLOGICS, published 2019)

What was measured:
[1] = molecular target: T1, CD3 on Jurkat luciferase reporter cells (UniProt P07766 23-207); assay: flow cytometry of Jurkat_NFAT_Luc2P cells, FITC-A; fold over hIgG
T1 construct: whole, on cells; also called CD3 positive Jurkat cell line with NFAT luciferase reporter

hCD3εγ chains = molecular target: T2, hCD3εγ chains; assay: ELISA on hCD3εγ chains, fit value of a flat curve, unit taken from the x axis Antibody [nM]
T2 construct: copies: 1 + 1
T2 epsilon: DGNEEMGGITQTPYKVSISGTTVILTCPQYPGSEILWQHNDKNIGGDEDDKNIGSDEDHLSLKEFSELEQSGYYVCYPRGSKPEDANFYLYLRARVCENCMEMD
T2 gamma: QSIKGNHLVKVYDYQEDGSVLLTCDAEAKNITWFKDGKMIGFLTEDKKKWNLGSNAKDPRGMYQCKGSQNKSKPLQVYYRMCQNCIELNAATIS

B1: UCHT1 (antibody, V domains shown)
VH: EVQLQQSGPELVKPGPSMKISCKASGYSFTGYTMNWVKQSHGKNLEWMGLINPYKGVSTYNQKFKDKATLTVDKSSSTAYMELLSLTSEDSAVYYCARSGYYGDSDWYFDVWGQGTTLTVFS
VL: DIQMTQTTSSLSASLGDRVTISCRASQDIRNYLNWYQQKPDGTVKLLIYYTSRLHSGVPSKFSGSGSGTDYSLTISNLEQEDIATYFCQQGNTLPWTFAGGTKLEIKR
notes: Bought antibody
Question: For B1, which Fold [1] is on record?
Answer: Its Fold is 35.

B2: ACE-05 (bispecific antibody)
heavy 1: not shown
heavy 2: not shown
light: QLVLTQPPSVSGAPGQRVTISCTGSSSNIGAGYDVHWYQQLPGAAPKLLIYGDINRPSGVPDRFSGSKSGISASLAITGLQAEDEADYYCQSYDSSLSGGVFGGGTKLTVLRTVAAPSVFIFPPSDEQLKSGTASVVCLLNNFYPREAKVQWKVDNALQSGNSQESVTEQDSKDSTYSLSSTLTLSKADYEKHKVYACEVTHQGLSSPVTKSFNRGEC
notes: The Fab regions are bivalent for PD-L1 and the Fv is monovalent for CD3; also called ALiCE molecule ACE-05
Question: With B2 as the binder, how does the Kd (hCD3εγ chains) read?
Answer: The Kd was 0.035 nM.
